Blank lines part the entries; values can stand above or below the molecule they belong to.
B1: eGFP-CENP-E^2070-C (domain or fragment, Homo sapiens, UniProt Q02224 2070-2701, looked up)
chain: RQNHQVKPEKRLLSDGQQHLTESLREKCSRIKELLKRYSEMDDHYECLNRLSLDLEKEIEFQKELSMRVKANLSLPYLQTKHIEKLFTANQRCSMEFHRIMKKLKYVLSYVTKIKEEQHESINKFEMDFIDEVEKQKELLIKIQHLQQDCDVPSRELRDLKLNQNMDLHIEEILKDFSESEFPSIKTEFQQVLSNRKEMTQFLEEWLNTRFDIEKLKNGIQKENDRICQVNNFFNNRIIAIMNESTEFEERSATISKEWEQDLKSLKEKNEKLFKNYQTLKTSLASGAQVNPTTQDNKNPHVTSRATQLTTEKIRELENSLHEAKESAMHKESKIIKMQKELEVTNDIIAKLQAKVHESNKCLEKTKETIQVLQDKVALGAKPYKEEIEDLKMKLVKIDLEKMKNAKEFEKEISATKATVEYQKEVIRLLRENLRRSQQAQDTSVISEHTDPQPSNKPLTCGGGSGIVQNTKALILKSEHIRLEKEISKLKQQNEQLIKQKNELLSNNQHLSNEVKTWKERTLKREAHKQVTCENSPKSPKVTGTASKKKQITPSQCKERNLQDPVPKESPKSCFFDSRSKSLPSPHPVRYFDNSSLGLCPEVQNAGAESVDSQPGPWHASSGKDVPECKTQ

How the values were obtained:
[1] = molecular target: mCherry-CENP-F^2922-2990 (Homo sapiens) (UniProt P49454); assay: AUC
[2] = molecular target: mCherry-CENP-F^2866-2990 (Homo sapiens) (UniProt P49454); assay: AUC
BubR1:Bub3 complex = BubR1:Bub3 complex (human, UniProt O60566 1-1050; O43684 1-328); assay: SEC
Chain of BubR1:Bub3 complex (O43684 whole entry, one chain of several): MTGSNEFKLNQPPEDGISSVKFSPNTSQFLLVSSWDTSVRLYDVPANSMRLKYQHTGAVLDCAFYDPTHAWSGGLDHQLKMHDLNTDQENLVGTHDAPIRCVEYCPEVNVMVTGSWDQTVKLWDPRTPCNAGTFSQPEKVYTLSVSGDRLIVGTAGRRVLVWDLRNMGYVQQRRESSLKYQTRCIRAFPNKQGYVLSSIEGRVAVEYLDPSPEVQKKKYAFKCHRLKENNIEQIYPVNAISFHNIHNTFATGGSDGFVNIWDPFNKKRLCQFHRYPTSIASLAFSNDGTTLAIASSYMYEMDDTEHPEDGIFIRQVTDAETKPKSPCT

eGFP-CENP-E^2070-C = molecular target: B1; assay: SEC

Molecule: B1
- binding result (BubR1:Bub3 complex): binds

B2: BubR1 pseudokinase domain (KinD, residues 705-1050) (domain or fragment, human, UniProt O60566 705-1050, looked up)
chain: EKLELTNETSENPTQSPWCSQYRRQLLKSLPELSASAELCIEDRPMPKLEIEKEIELGNEDYCIKREYLICEDYKLFWVAPRNSAELTVIKVSSQPVPWDFYINLKLKERLNEDFDHFCSCYQYQDGCIVWHQYINCFTLQDLLQHSEYITHEITVLIIYNLLTIVEMLHKAEIVHGDLSPRCLILRNRIHDPYDCNKNNQALKIVDFSYSVDLRVQLDVFTLSGFRTVQILEGQKILANCSSPYQVDLFGIADLAHLLLFKEHLQVFWDGSFWKLSQNISELKDGELWNKFFVRILNANDEATVSVLGELAAEMNGVFDTTFQSHLNKALWKVGKLTSPGALLFQ
- binding result (eGFP-CENP-E^2070-C): binds

Further lines, results first:

- stoichiometry N [1]: 2
Molecule: mCherry-CENP-F^2922-2990 (from UniProt P49454 2922-2990) (domain or fragment)

- stoichiometry N [2]: 2
Molecule: mCherry-CENP-F^2866-2990 (from UniProt P49454 2866-2990) (domain or fragment)
